Measurements published in patent US20100055095A1 (Genentech, published 2010).

Experiments:
Experiment in all cases: co-immunoprecipitation from transfected Cos 7 cells on HA beads, western blot with anti-HA and anti-p110α
[1] = target: T1, p110α, wild-type (protein encoded by PIK3CA, catalytic subunit of PI3K) (human, UniProt P42336 1-1068)
T1 construct: also called p110alpha WT
From the text: (§1) Proteins were immunoprecipitated using HA beads, separated by SDS-PAGE, transferred to nitrocellulose, and detected using anti-HA and anti-p110α antibodies. […] In the header row of Table 2, the terms “p110alpha E545K” and “p110alpha H1047R” refer to two known mutational “hot spots” in p110α which result in constitutively active p110α.

[2] = target: T2, p110α E545K (human, UniProt P42336 1-1068)
T2 construct: Known hot-spot mutant, constitutively active p110α; also called p110alpha E545K
From the text: as §1

[3] = target: T3, p110α H1047R (human, UniProt P42336 1-1068)
T3 construct: Known hot-spot mutant, constitutively active p110α; also called p110alpha H1047R
From the text: as §1

Measured: binding result

T1 sequence (P42336 whole entry): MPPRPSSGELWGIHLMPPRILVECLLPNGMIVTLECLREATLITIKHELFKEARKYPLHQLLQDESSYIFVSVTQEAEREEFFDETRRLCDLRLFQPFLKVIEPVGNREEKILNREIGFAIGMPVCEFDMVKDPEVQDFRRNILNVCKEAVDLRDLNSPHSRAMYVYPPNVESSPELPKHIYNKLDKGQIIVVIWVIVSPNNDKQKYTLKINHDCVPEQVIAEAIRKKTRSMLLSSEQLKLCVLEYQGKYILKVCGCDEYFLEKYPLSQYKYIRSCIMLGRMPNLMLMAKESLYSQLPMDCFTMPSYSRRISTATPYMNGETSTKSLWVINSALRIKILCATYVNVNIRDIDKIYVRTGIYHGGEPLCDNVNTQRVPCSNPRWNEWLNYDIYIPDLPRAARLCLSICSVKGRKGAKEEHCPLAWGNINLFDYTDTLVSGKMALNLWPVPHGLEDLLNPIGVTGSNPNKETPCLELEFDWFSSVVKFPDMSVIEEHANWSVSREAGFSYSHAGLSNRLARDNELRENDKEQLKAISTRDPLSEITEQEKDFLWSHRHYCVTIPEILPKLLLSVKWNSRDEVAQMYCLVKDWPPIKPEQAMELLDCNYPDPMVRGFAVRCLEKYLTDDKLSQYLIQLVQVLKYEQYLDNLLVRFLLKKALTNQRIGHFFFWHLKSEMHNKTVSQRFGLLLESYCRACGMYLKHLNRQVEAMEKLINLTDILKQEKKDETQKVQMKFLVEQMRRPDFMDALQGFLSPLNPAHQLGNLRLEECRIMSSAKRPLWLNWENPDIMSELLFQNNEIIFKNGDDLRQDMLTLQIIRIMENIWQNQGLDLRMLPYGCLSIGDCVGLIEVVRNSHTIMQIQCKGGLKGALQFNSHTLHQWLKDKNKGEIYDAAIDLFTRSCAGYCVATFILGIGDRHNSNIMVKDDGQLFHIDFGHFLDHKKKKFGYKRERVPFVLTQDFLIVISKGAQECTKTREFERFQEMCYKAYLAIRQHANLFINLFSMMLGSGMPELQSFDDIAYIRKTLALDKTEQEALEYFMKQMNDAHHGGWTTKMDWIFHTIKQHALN
T2 sequence (P42336 whole entry E545K): as the sequence (P42336 whole entry) above, with E545K counted along it
T3 sequence (P42336 whole entry H1047R): as the sequence (P42336 whole entry) above, with H1047R counted along it

B1: N-terminally HA-tagged p85α R162stop (other)
chain: MSAEGYQYRALYDYKKEREEDIDLHLGDILTVNKGSLVALGFSDGQEARPEEIGWLNGYNETTGERGDFPGTYVEYIGRKKISPPTPKPRPPRPLPVAPGSSKTEADVEQQALTLPDLAEQFAPPDIAPPLLIKLVEAIEKKGLECSTLYRTQSSSNLAEL
notes: Stop codon at R162; also called p85 R162stop; 162R>O; not shown: N-terminal HA tag
no binding: all assays above
